Data on one molecule can be found in patent US20030040050A1 (published 2003).

One experiment deals with T1, HA-TAK1 (UniProt Q62073 1-579, limits assumed).
T1 construct: I recall the cited Yamaguchi 1995 clone as mouse TAK1 (Q62073); human TAK1 is O43318; also called HA-tagged TAK1 protein
T1 sequence (looked up): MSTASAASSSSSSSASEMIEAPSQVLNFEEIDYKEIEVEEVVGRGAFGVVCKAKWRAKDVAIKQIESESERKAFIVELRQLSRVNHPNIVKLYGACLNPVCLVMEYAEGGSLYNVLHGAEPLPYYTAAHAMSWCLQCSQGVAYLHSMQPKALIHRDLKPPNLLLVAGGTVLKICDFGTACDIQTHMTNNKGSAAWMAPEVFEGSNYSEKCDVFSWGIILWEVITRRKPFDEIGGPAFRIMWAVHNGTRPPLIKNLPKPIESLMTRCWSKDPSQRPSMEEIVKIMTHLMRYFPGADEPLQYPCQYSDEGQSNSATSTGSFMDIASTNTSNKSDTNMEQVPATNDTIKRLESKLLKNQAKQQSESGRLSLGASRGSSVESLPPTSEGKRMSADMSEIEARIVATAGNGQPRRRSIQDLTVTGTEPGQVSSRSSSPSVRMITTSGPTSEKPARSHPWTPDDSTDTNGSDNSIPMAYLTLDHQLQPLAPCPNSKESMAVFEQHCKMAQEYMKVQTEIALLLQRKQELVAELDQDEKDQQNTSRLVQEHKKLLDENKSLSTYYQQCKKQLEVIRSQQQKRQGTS
Nature of the experiment: coimmunoprecipitation from transfected 293 cells: IP anti-T7, immunoblot anti-HA. How it is done: 293 cells were transiently transfected with an expression vector for HA-TAK1 in combination with empty vector (−) or with expression vectors for T7-TAB2-Full length (Full), T7-TAB2C (C), or T7-TAB2N (N) as indicated. Cell extracts were immunoprecipitated (IP) with anti-T7 (7) or mouse IgG (C). Coprecipitated HA-TAK1 was detected by immunoblotting (IB) with anti-HA (upper panel, left). The amounts of immunoprecipitated T7-TAB2 proteins were determined with anti-T7 (lower panel). Whole cell extracts were immunoblotted with anti-HA to determine total amounts of HA-TAK1 (upper panel, right). Schematic representation of various TAB2 constructs is shown in the lower part. The coiled-coil regions are indicated by solid boxes.

The target in the next experiment is T2, Flag-TRAF6 (UniProt Q9Y4K3 1-522).
T2 construct: The anti-TRAF6C peptide covers amino acids 497 to 522, which fits the 522-residue human protein; also called Flag-tagged TRAF6; 2Flag-TRAF6
T2 sequence (looked up): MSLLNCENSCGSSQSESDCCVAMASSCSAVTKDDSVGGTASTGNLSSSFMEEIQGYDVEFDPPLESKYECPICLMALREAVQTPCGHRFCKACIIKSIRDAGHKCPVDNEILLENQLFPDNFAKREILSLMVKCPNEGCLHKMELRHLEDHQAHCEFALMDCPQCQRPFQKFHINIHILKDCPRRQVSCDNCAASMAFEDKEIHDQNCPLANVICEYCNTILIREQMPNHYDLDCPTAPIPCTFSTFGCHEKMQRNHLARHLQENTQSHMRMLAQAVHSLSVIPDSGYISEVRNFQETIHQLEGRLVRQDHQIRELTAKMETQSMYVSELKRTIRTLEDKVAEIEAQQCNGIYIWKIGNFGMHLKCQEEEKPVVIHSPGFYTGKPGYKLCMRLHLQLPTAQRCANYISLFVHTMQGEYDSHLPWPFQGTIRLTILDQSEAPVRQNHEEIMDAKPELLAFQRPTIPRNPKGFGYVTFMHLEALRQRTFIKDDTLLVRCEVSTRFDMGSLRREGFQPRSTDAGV
Nature of the experiment: coimmunoprecipitation from transfected 293 cells: IP anti-T7, immunoblot anti-Flag. From the text: (A) show an association of TAB2 with […] in mammalian cells. 293 cells were transiently transfected with an expression vector for 2Flag-TRAF6 in combination with empty vector (−) or with expression vectors for T7-TAB2-Full length (Full) (Full), T7-TAB2C (C), or T7-TAB2N (N) as indicated. Cell extracts were immunoprecipitated (IP) with anti-T7 (7) or mouse IgG (C). Coprecipitated Flag-TRAF6 was detected by immunoblotting (IB) with anti-Flag (upper panel, left). The amounts of immunoprecipitated T7-TAB2 proteins were determined with anti-T7 (lower panel). Whole cell extracts were immunoblotted with anti-Flag to determine total amounts of Flag-TRAF6 (upper panel, right).
The present inventors therefore determined whether TAB2 could interact with TRAF6 (FIG. 3A). T7-TAB2 was coexpressed with Flag-tagged TRAF6 in 293 cells and immunoprecipitated with anti-T7 antibody. The immune complexes were subjected to immunoblotting with a monoclonal antibody to Flag. TAB2 efficiently precipitated with TRAF6 (lane 4). To determine which domain of TAB2 is responsible for its TRAF6 association, the inventors tested whether TAB2N or TAB2C is able to bind to TRAF6, using the same experimental procedure. […] Thus, the C-terminal domain of TAB2 is required for TRAF6 binding.
For orientation: A western blot detects proteins with antibodies after separation by electrophoresis.

B1: T7-TAB2N (other)
chain: MASMTGGQQMGMAQGSHQIDFQVLHDLRQKFPEVPEVVVSRCMLQNNNNLDACCAVLSQESTRYLYGEGDLNFSDDSGISGLRNHMTSLNLDLQSQNIYHHGREGSRMNGSRTLTHSISDGQLQGGQSNSELFQQEPQTAPAQVPQGFNVFGMSSSSGASNSAPHLGFHLGSKGTSSLSQQTPRFNPIMVTLAPNIQTGRNTPTSLHIHGVPPPVLNSPQGNSIYIRPYITTPGGTTRQTQQHSGWVSQFNPMNPQQVYQPSQPGPWTTCPASNPLSHTSSQQPNQQGHQTSHVYMPISSPTTSQPPTIHSSGSSQSSAHSQYNIQNISTGPRKNQIEIKLEPPQRNNSSKLRSSGPRTSSTSSSVNSQTLNRNQPTVYIAASPPNTDELMSRSQPKVYISANAATGDEQV
notes: Expressed in 293 cells; also called N (1-400)
Consider B1, for which the binding result in the experiment with HA-TAK1 and with Flag-TRAF6 was “no binding” in each case.
